Biological target: HigC SecB^TA chaperone of the E. coli NT1F31 HigBAC system (E. coli NT1F31)
Test: ITC

Binder	Kd	effective KD with 1.5-fold molar excess of the HigA ChAD peptide	stoichiometry N
GELTAESYDDSYLDDEDADWTATGQGQKSAG [gpV^48-78 peptide]	0.25 µM	6.6 µM	0.47
GELTAESYDDSYLAAAAADWTATGQGQKSAG [gpV^48-78 peptide, poly-alanine substitution of the D61DED64 element]	7 µM	–	0.5

Reference: paper doi:10.1101/2024.02.24.581848
